Test results from the supplement of paper PMC7877785.
± gives the uncertainty stated by the source.

Assay: self-splicing fitness, log relative to wild type (ln ratio); higher = more splicing; Tetrahymena group I intron in knt gene, E. coli kanamycin selection, DiMSum; sequences stand for … in CUCUCU…GGAGGGAAAAGUUAUCAGGCAUGCACCUGGUAGCUAGUCUUUAAACCAAUAGAUUGCAUCGGUUUAAAAGGCAAGACCGUCAAAUUGCGGGAAAGGGGUCAACAGCCGUUCAGUACCAAGUCUCAGGGGAAACUUUGAGAUGGCCUUGCAAAGGGUAUGGUAAUAAGCUGACGGACAUGGUCCUAACCACGCAGCCAAGUCCUAAGUCAACAGAUCUUCUGUUGAUAUGGAUGCAGUUCACAGACUAAAUGUCGGUCGGGGAAGAUGUAUUCUUCUCAUAAGAUAUAGUCGGACCUCUCCUUAAUGGGAGCUAGCGGAUGAAGUGAUGCAACACUGGAGCCGCUGGGAACUAAUUUGUAUGCGAAAGUAUAUUGAUUAGUUUUGGAGUACUCGUGGUCG
In short: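 Colonies from six replicate transformations of E. coli BL21(DE3) were pooled and amplicon-sequenced on an Illumina HiSeq 2500. The library placed an intron with all eight P1ex-region nucleotides randomised inside the knt kanamycin-resistance gene on pET-22b(+), and cells grew overnight at 37°C or 30°C on LB agar with or without 25 μg/mL kanamycin (plus 100 μg/mL carbenicillin, 50 μM IPTG, 0.2% rhamnose). Fitness is the DiMSum error-weighted combination of wild-type-normalised replicate fold changes, kanamycin versus none.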

Sequence | self-splicing fitness (ln) (30 °C) | self-splicing fitness (ln) (37 °C)
AAGUAGCAAUAUUACGGCCG | -1.34 ± 0.12 | -0.293 ± 0.18
AAGUAGCAAUAUUACGGCUA | -1.01 ± 0.085 | -0.475 ± 0.095
AAGUAGCAAUAUUACGGCUC | -0.15 ± 0.12 | 0.32 ± 0.15
AAGUAGCAAUAUUACGGUAA | -1.12 ± 0.17 | -0.903 ± 0.13
AAGUAGCAAUAUUACGUAAA | -1.09 ± 0.095 | -0.434 ± 0.14
AAGUAGCAAUAUUACGUAAG | -2.48 ± 0.13 | -1.43 ± 0.14
AAGUAGCAAUAUUACGUACC | -0.997 ± 0.16 | -0.0515 ± 0.15
AAGUAGCAAUAUUACGUACG | -1.29 ± 0.088 | -0.0022 ± 0.11
AAGUAGCAAUAUUACGUCUA | -0.618 ± 0.09 | 0.263 ± 0.1
AAGUAGCAAUAUUACGUGCG | -1.48 ± 0.12 | -0.495 ± 0.15
AAGUAGCAAUAUUACGUGUG | -2.07 ± 0.099 | -1.15 ± 0.094
AAUAAGCAAUAUUACGAAAG | -3.68 ± 0.27 | -1.37 ± 0.22
AAUAAGCAAUAUUACGAACC | -1.33 ± 0.15 | -0.414 ± 0.18
AAUAAGCAAUAUUACGAAGA | -1.52 ± 0.26 | -1.92 ± 0.32
AAUAAGCAAUAUUACGAAUC | -2.45 ± 0.21 | -0.866 ± 0.23
AAUAAGCAAUAUUACGACGC | -0.19 ± 0.093 | 0.0933 ± 0.12
AAUAAGCAAUAUUACGACGG | -2.35 ± 0.15 | -1.34 ± 0.19
AAUAAGCAAUAUUACGACUA | -0.696 ± 0.12 | -0.486 ± 0.093
AAUAAGCAAUAUUACGAGCG | -1.5 ± 0.15 | -0.155 ± 0.17
AAUAAGCAAUAUUACGAUCG | -1 ± 0.081 | -0.0681 ± 0.096
AAUAAGCAAUAUUACGCACC | -0.414 ± 0.13 | 0.346 ± 0.13
AAUAAGCAAUAUUACGCAGG | -1.85 ± 0.14 | -2.12 ± 0.15
AAUAAGCAAUAUUACGCAGU | -3.08 ± 0.22 | -2.04 ± 0.19
AAUAAGCAAUAUUACGCUGA | -1.81 ± 0.17 | -1.63 ± 0.18
AAUAAGCAAUAUUACGGAAC | -4.53 ± 0.34 | -2.16 ± 0.23

Sequence | self-splicing fitness (ln) (30 °C) | self-splicing fitness (ln) (37 °C)
AAUAAGCAAUAUUACGGACA | -0.911 ± 0.13 | 0.0108 ± 0.14
AAUAAGCAAUAUUACGGCGA | -0.134 ± 0.079 | -0.274 ± 0.1
AAUAAGCAAUAUUACGGGAU | -2.73 ± 0.15 | -1.33 ± 0.14
AAUAAGCAAUAUUACGGGCC | -2.8 ± 0.39 | -2.21 ± 0.31
AAUAAGCAAUAUUACGGGGA | -3.01 ± 0.21 | -1.42 ± 0.16
AAUAAGCAAUAUUACGGGUU | -2.37 ± 0.13 | -1.43 ± 0.16
AAUAAGCAAUAUUACGGUCC | -1.47 ± 0.14 | -0.63 ± 0.22
AAUAAGCAAUAUUACGUAAG | -2.06 ± 0.072 | -0.567 ± 0.084
AAUAAGCAAUAUUACGUAGG | -2.11 ± 0.16 | -0.935 ± 0.17
AAUAAGCAAUAUUACGUCAA | -2.29 ± 0.14 | -2.06 ± 0.12
AAUAAGCAAUAUUACGUCGG | -1.91 ± 0.14 | -1.75 ± 0.18
AAUAAGCAAUAUUACGUUCU | -0.338 ± 0.077 | 0.0226 ± 0.11
AAUAAGCAAUAUUACGUUGA | -2.96 ± 0.22 | -2.62 ± 0.2
AAUCAGCAAUAUUACGAAUG | -0.581 ± 0.069 | -0.488 ± 0.12
AAUCAGCAAUAUUACGACCU | 0.207 ± 0.09 | 0.538 ± 0.096
AAUCAGCAAUAUUACGAGGU | -2.3 ± 0.12 | -1.36 ± 0.15
AAUCAGCAAUAUUACGCGCA | -0.8 ± 0.081 | -0.264 ± 0.12
AAUCAGCAAUAUUACGCGUC | -1.14 ± 0.071 | 0.513 ± 0.088
AAUCAGCAAUAUUACGCUAA | -0.408 ± 0.089 | 0.12 ± 0.092
AAUCAGCAAUAUUACGCUUA | -0.484 ± 0.072 | 0.347 ± 0.098
AAUCAGCAAUAUUACGGCGA | -0.0143 ± 0.073 | 0.557 ± 0.093
AAUCAGCAAUAUUACGGGCA | -0.515 ± 0.091 | -0.146 ± 0.12
AAUCAGCAAUAUUACGGUGA | -0.138 ± 0.076 | 0.345 ± 0.087
AAUCAGCAAUAUUACGGUUU | -1.35 ± 0.056 | -0.0658 ± 0.064
AAUCAGCAAUAUUACGUCAA | -0.952 ± 0.077 | -0.614 ± 0.1

Sequence | self-splicing fitness (ln) (30 °C) | self-splicing fitness (ln) (37 °C)
AAUCAGCAAUAUUACGUCUU | 0.123 ± 0.06 | 0.106 ± 0.079
AAUCAGCAAUAUUACGUGAC | -1.81 ± 0.085 | -1.72 ± 0.12
AAUCAGCAAUAUUACGUGCG | -0.392 ± 0.058 | -0.216 ± 0.08
AAUCAGCAAUAUUACGUGUG | -0.753 ± 0.053 | -0.737 ± 0.067
AAUCAGCAAUAUUACGUUAC | -2.78 ± 0.13 | -1.08 ± 0.1
AAUCAGCAAUAUUACGUUCA | -1.2 ± 0.091 | -0.527 ± 0.11
AAUCAGCAAUAUUACGUUGU | -2.38 ± 0.1 | -1.68 ± 0.12
AAUGAGCAAUAUUACGAACU | -1.11 ± 0.14 | -0.57 ± 0.16
AAUGAGCAAUAUUACGAAUG | -3.34 ± 0.36 | 
AAUGAGCAAUAUUACGACCA | -2.14 ± 0.24 | -2.22 ± 0.37
AAUGAGCAAUAUUACGAGCA | -3.45 ± 0.32 | -2.35 ± 0.29
AAUGAGCAAUAUUACGCACU | -1.07 ± 0.11 | 0.105 ± 0.15
AAUGAGCAAUAUUACGCGCC | -3.19 ± 0.28 | -2.73 ± 0.44
AAUGAGCAAUAUUACGCGGA | -2.88 ± 0.21 | -2.13 ± 0.21
AAUGAGCAAUAUUACGCGGU | -2.93 ± 0.17 | -3.12 ± 0.32
AAUGAGCAAUAUUACGCUUU | -3.41 ± 0.23 | -2.34 ± 0.31
AAUGAGCAAUAUUACGGAUU | -2.38 ± 0.15 | -1.04 ± 0.16
AAUGAGCAAUAUUACGGCCG | -2.12 ± 0.15 | -1.36 ± 0.2
AAUGAGCAAUAUUACGGCGA | -2.77 ± 0.34 | -0.446 ± 0.19
AAUGAGCAAUAUUACGGGGC | -2.82 ± 0.2 | -1.93 ± 0.24
AAUGAGCAAUAUUACGGGUG | -3.73 ± 0.33 | -2.72 ± 0.22
AAUGAGCAAUAUUACGUAUC | -3.14 ± 0.21 | -1.14 ± 0.17
AAUGAGCAAUAUUACGUCCG | -4.29 ± 0.39 | -3.13 ± 0.29
AAUGAGCAAUAUUACGUUCU | -2 ± 0.085 | -1.21 ± 0.092
AAUGAGCAAUAUUACGUUUA | -3.81 ± 0.35 | -2.21 ± 0.22
